Source: PMC6422423, “Constitutively active BRS3 is a genuinely orphan GPCR in placental mammals” (PLoS Biology, 2019)
Where a chain is given by its changes, count along the chain named. Names and notes keep the numbering of the source. One block for each molecule: values may come before it.

Legend:
mouse BRS3 (mBRS3) = test: Luciferase reporter, constitutive activity (WT, mutants, truncated; with/without inhibitor); format: cell-based; set-up: key to constitutive luciferase activity: fold over pcDNA-transfected blank control (blank = 1); settings: for luciferase, CRE / luciferase, NFAT / luciferase, SRE / luciferase, SRF: Blank = 1; for constitutive luciferase activity: no ligand; for CRE luciferase reporter activity relative to Blank (Blank = 1) / NFAT luciferase reporter activity relative to Blank (Blank = 1) / SRF luciferase reporter activity relative to Blank (Blank = 1): constitutive, full-length mBRS3 and truncated N-mBRS3
Procedure: (§1) To detect constitutive activity of BRS3, HEK293 cells were seeded in 24-well plates and cotransfected with the CRE/NFAT-RE/SRF-RE/SRE luciferase reporter plasmids (50 ng), the BRS3 from different species, or BRS3 mutants with different doses (10 ng/50 ng/150 ng); after 24 h, cells were further incubated in serum-free media for another 12 h before luciferase assay. As for peptide supplementation treatment, HEK293 cells were cotransfected with the CRE/NFAT-RE/SRF-RE/SRE luciferase reporter plasmids (50 ng) and various genes (300 ng) of the bombesin receptor family. […] Luciferase activities were determined using luciferase assay kits (Beyotime, Shanghai, China) and normalized to β-galactosidase activity. All experiments were performed at least three times in triplicates. HEK293 cells transfected with pcDNA were used as a blank control in all luciferase experiments, and the fold was calculated compared to blank control.

human BRS3 (hBRS3) = test: as above; format: cell-based; settings: for luciferase, CRE / luciferase, NFAT / luciferase, SRE / luciferase, SRF: Blank = 1; for CRE luciferase reporter activity relative to Blank (Blank = 1) / NFAT luciferase reporter activity relative to Blank (Blank = 1) / SRF luciferase reporter activity relative to Blank (Blank = 1): constitutive
Procedure: as §1

[1] = full-length hBRS3 and truncated N-hBRS3, replicate 1
[2] = full-length hBRS3 and truncated N-hBRS3, replicate 2
[3] = full-length hBRS3 and truncated N-hBRS3, third line, unlabelled, equals mean of the two replicates
[4] = hBRS3 WT and mutant 3, replicate 1
[5] = hBRS3 WT and mutant 3, replicate 2
[6] = hBRS3 WT and mutant 3, third line, unlabelled, equals mean of the two replicates

B2: mBRS3-F337A (protein, UniProt O54798 1-399, looked up, variant F337A)
Bombesin receptor subtype-3: MSQRQSQSPNQTLISITNDTETSSSVVSNDTTHKGWTGDNSPGIEALCAIYITYAGIISVGILGNAILIKVFFKTKSMQTVPNIFITSLAFGDLLLLLTCVPVDATHYLAEGWLFGKVGCKVLSFIRLTSVGVSVFTLTILSADRYKAVVKPLERQPPNAILKTCAKAGGIWIVSMIFALPEAIFSNVYTFQDPNRNVTFESCNSYPISERLLQEIHSLLCFLVFYIIPLSIISVYYSLIARTLYKSTLNIPTEEQSHARKQIESRKRIAKTVLVLVALFALCWLPNHLLYLYHSFTYESYANHSDVPFVIIIFSRVLAFSNSCVNPFALYWLSKTAQQHFKAQLCCLKAEQPEPPLGDIPLNNLTVMGRVPATGSAHVSEISVTLFSGSSAKKGEDKV
constitutive luciferase activity (mouse BRS3 (mBRS3); SRF, mean): 15.0321 | constitutive luciferase activity (mouse BRS3 (mBRS3); SRF, replicate 1): 15.1183 | constitutive luciferase activity (mouse BRS3 (mBRS3); SRF, replicate 2): 14.946

B6: mBRS3-A270I (protein, UniProt O54798 1-399, looked up, variant A270I)
Bombesin receptor subtype-3: B2 Bombesin receptor subtype-3 with A270I, A337F
constitutive luciferase activity (mouse BRS3 (mBRS3); SRF, mean): 14.9649 | constitutive luciferase activity (mouse BRS3 (mBRS3); SRF, replicate 1): 15.7177 | constitutive luciferase activity (mouse BRS3 (mBRS3); SRF, replicate 2): 14.2121

B8: mBRS3 (protein)
chain: B2 Bombesin receptor subtype-3 with A337F
modifications: left off: V5 (from the vector pcDNA3.1-V5-His), end not stated, state not stated | His tag (from the vector pcDNA3.1-V5-His), end not stated, state not stated
CRE luciferase reporter activity relative to Blank (Blank = 1) (mouse BRS3 (mBRS3); CRE, replicate 1): 16.331 | CRE luciferase reporter activity relative to Blank (Blank = 1) (mouse BRS3 (mBRS3); CRE, replicate 2): 17.4509 | CRE luciferase reporter activity relative to Blank (Blank = 1) (mouse BRS3 (mBRS3); CRE, third line, unlabelled, equals mean of the two replicates): 16.8909 | constitutive luciferase activity (mouse BRS3 (mBRS3); CRE, mean): 17.9436 | constitutive luciferase activity (mouse BRS3 (mBRS3); CRE, replicate 1): 17.8927 | constitutive luciferase activity (mouse BRS3 (mBRS3); CRE, replicate 2): 17.9945 | NFAT luciferase reporter activity relative to Blank (Blank = 1) (mouse BRS3 (mBRS3); replicate 1): 16.9181 | NFAT luciferase reporter activity relative to Blank (Blank = 1) (mouse BRS3 (mBRS3); replicate 2): 16.5656 | NFAT luciferase reporter activity relative to Blank (Blank = 1) (mouse BRS3 (mBRS3); third line, unlabelled, equals mean of the two replicates): 16.7418 | SRF luciferase reporter activity relative to Blank (Blank = 1) (mouse BRS3 (mBRS3); SRF, replicate 1): 18.8375 | SRF luciferase reporter activity relative to Blank (Blank = 1) (mouse BRS3 (mBRS3); SRF, replicate 2): 17.9845 | SRF luciferase reporter activity relative to Blank (Blank = 1) (mouse BRS3 (mBRS3); SRF, third line, unlabelled, equals mean of the two replicates): 18.411 | constitutive luciferase activity (mouse BRS3 (mBRS3); SRF, mean): 20.9426 | constitutive luciferase activity (mouse BRS3 (mBRS3); SRF, replicate 1): 19.9659 | constitutive luciferase activity (mouse BRS3 (mBRS3); SRF, replicate 2): 21.9194

B11: human (protein, UniProt P32247 1-399, looked up)
Bombesin receptor subtype-3: MAQRQPHSPNQTLISITNDTESSSSVVSNDNTNKGWSGDNSPGIEALCAIYITYAVIISVGILGNAILIKVFFKTKSMQTVPNIFITSLAFGDLLLLLTCVPVDATHYLAEGWLFGRIGCKVLSFIRLTSVGVSVFTLTILSADRYKAVVKPLERQPSNAILKTCVKAGCVWIVSMIFALPEAIFSNVYTFRDPNKNMTFESCTSYPVSKKLLQEIHSLLCFLVFYIIPLSIISVYYSLIARTLYKSTLNIPTEEQSHARKQIESRKRIARTVLVLVALFALCWLPNHLLYLYHSFTSQTYVDPSAMHFIFTIFSRVLAFSNSCVNPFALYWLSKSFQKHFKAQLFCCKAERPEPPVADTSLTTLAVMGTVPGTGSIQMSEISVTSFTGCSVKQAEDRF
luciferase, CRE (human BRS3 (hBRS3); value 1 of 3): 4.2545 | luciferase, NFAT (human BRS3 (hBRS3); value 1 of 3): 6.3808 | luciferase, SRE (human BRS3 (hBRS3); value 1 of 3): 1.2780 | luciferase, SRF (human BRS3 (hBRS3); value 1 of 3): 4.0202 | luciferase, CRE (human BRS3 (hBRS3); value 2 of 3): 3.9246 | luciferase, NFAT (human BRS3 (hBRS3); value 2 of 3): 6.2351 | luciferase, SRE (human BRS3 (hBRS3); value 2 of 3): 1.0242 | luciferase, SRF (human BRS3 (hBRS3); value 2 of 3): 3.9201 | luciferase, CRE (human BRS3 (hBRS3); value 3 of 3): 4.0896 | luciferase, NFAT (human BRS3 (hBRS3); value 3 of 3): 6.5264 | luciferase, SRE (human BRS3 (hBRS3); value 3 of 3): 1.5319 | luciferase, SRF (human BRS3 (hBRS3); value 3 of 3): 4.1204

B12: hBRS3 (protein)
chain: B11 Bombesin receptor subtype-3
modifications: left off: V5 (from the vector pcDNA3.1-V5-His), end not stated, state not stated | His tag (from the vector pcDNA3.1-V5-His), end not stated, state not stated
CRE luciferase reporter activity relative to Blank (Blank = 1) (human BRS3 (hBRS3); [1]): 3.5016 | CRE luciferase reporter activity relative to Blank (Blank = 1) (human BRS3 (hBRS3); [2]): 4.7486 | CRE luciferase reporter activity relative to Blank (Blank = 1) (human BRS3 (hBRS3); [3]): 4.1251 | NFAT luciferase reporter activity relative to Blank (Blank = 1) (human BRS3 (hBRS3); [1]): 5.5943 | NFAT luciferase reporter activity relative to Blank (Blank = 1) (human BRS3 (hBRS3); [2]): 5.6987 | NFAT luciferase reporter activity relative to Blank (Blank = 1) (human BRS3 (hBRS3); [3]): 5.6465 | SRF luciferase reporter activity relative to Blank (Blank = 1) (human BRS3 (hBRS3); [1]): 3.202 | SRF luciferase reporter activity relative to Blank (Blank = 1) (human BRS3 (hBRS3); [2]): 3.9147 | SRF luciferase reporter activity relative to Blank (Blank = 1) (human BRS3 (hBRS3); [3]): 3.5584

B13: hBRS3-WT (protein, UniProt P32247 1-399, looked up)
Bombesin receptor subtype-3: B11 Bombesin receptor subtype-3
CRE luciferase reporter activity relative to Blank (Blank = 1) (human BRS3 (hBRS3); [4]): 4.2545 | CRE luciferase reporter activity relative to Blank (Blank = 1) (human BRS3 (hBRS3); [5]): 3.9246 | CRE luciferase reporter activity relative to Blank (Blank = 1) (human BRS3 (hBRS3); [6]): 4.0896 | NFAT luciferase reporter activity relative to Blank (Blank = 1) (human BRS3 (hBRS3); [4]): 6.5264 | NFAT luciferase reporter activity relative to Blank (Blank = 1) (human BRS3 (hBRS3); [5]): 6.2351 | NFAT luciferase reporter activity relative to Blank (Blank = 1) (human BRS3 (hBRS3); [6]): 6.3808 | SRF luciferase reporter activity relative to Blank (Blank = 1) (human BRS3 (hBRS3); [4]): 4.1204 | SRF luciferase reporter activity relative to Blank (Blank = 1) (human BRS3 (hBRS3); [5]): 3.9201 | SRF luciferase reporter activity relative to Blank (Blank = 1) (human BRS3 (hBRS3); [6]): 4.0202

Other lines, results leading:

luciferase, CRE (mouse BRS3 (mBRS3); value 1 of 3): 19.4537 | luciferase, NFAT (mouse BRS3 (mBRS3); value 1 of 3): 19.0254 | luciferase, SRE (mouse BRS3 (mBRS3); value 1 of 3): 1.5624 | luciferase, SRF (mouse BRS3 (mBRS3); value 1 of 3): 20.3125 | luciferase, CRE (mouse BRS3 (mBRS3); value 2 of 3): 18.5759 | luciferase, NFAT (mouse BRS3 (mBRS3); value 2 of 3): 18.2536 | luciferase, SRE (mouse BRS3 (mBRS3); value 2 of 3): 1.4021 | luciferase, SRF (mouse BRS3 (mBRS3); value 2 of 3): 21.0453 | luciferase, NFAT (mouse BRS3 (mBRS3); value 3 of 3): 18.6395 | luciferase, SRE (mouse BRS3 (mBRS3); value 3 of 3): 1.4823 | luciferase, SRF (mouse BRS3 (mBRS3); value 3 of 3): 20.6789
B1: mouse (protein, UniProt O54798 1-399, looked up)
Bombesin receptor subtype-3: B2 Bombesin receptor subtype-3 with A337F

constitutive luciferase activity (mouse BRS3 (mBRS3); SRF, mean): 19.8563 | constitutive luciferase activity (mouse BRS3 (mBRS3); SRF, replicate 1): 19.1647 | constitutive luciferase activity (mouse BRS3 (mBRS3); SRF, replicate 2): 20.5479
B3: mBRS3-R268A (protein, UniProt O54798 1-399, looked up, variant R268A)
Bombesin receptor subtype-3: B2 Bombesin receptor subtype-3 with R268A, A337F

constitutive luciferase activity (mouse BRS3 (mBRS3); SRF, mean): 15.5479 | constitutive luciferase activity (mouse BRS3 (mBRS3); SRF, replicate 1): 16.2185 | constitutive luciferase activity (mouse BRS3 (mBRS3); SRF, replicate 2): 14.8773
B4: mBRS3-Q339A (protein, UniProt O54798 1-399, looked up, variant Q339A)
Bombesin receptor subtype-3: B2 Bombesin receptor subtype-3 with A337F, Q339A

constitutive luciferase activity (mouse BRS3 (mBRS3); CRE, mean): 17.8056 | constitutive luciferase activity (mouse BRS3 (mBRS3); CRE, replicate 1): 17.9268 | constitutive luciferase activity (mouse BRS3 (mBRS3); CRE, replicate 2): 17.6843
B5: mBRS3-R370A (protein, UniProt O54798 1-399, looked up, variant R370A)
Bombesin receptor subtype-3: B2 Bombesin receptor subtype-3 with A337F, R370A

constitutive luciferase activity (mouse BRS3 (mBRS3); CRE, mean): 17.158 | constitutive luciferase activity (mouse BRS3 (mBRS3); CRE, replicate 1): 17.4198 | constitutive luciferase activity (mouse BRS3 (mBRS3); CRE, replicate 2): 16.8962
B7: mBRS3-P372A (protein, UniProt O54798 1-399, looked up, variant P372A)
Bombesin receptor subtype-3: B2 Bombesin receptor subtype-3 with A337F, P372A

constitutive luciferase activity (mouse BRS3 (mBRS3); CRE, mean): 16.9342 | constitutive luciferase activity (mouse BRS3 (mBRS3); CRE, replicate 1): 16.8106 | constitutive luciferase activity (mouse BRS3 (mBRS3); CRE, replicate 2): 17.0578
B9: mBRS3-Q156A (protein, UniProt O54798 1-399, looked up, variant Q156A)
Bombesin receptor subtype-3: B2 Bombesin receptor subtype-3 with Q156A, A337F

constitutive luciferase activity (mouse BRS3 (mBRS3); CRE, mean): 15.9368 | constitutive luciferase activity (mouse BRS3 (mBRS3); CRE, replicate 1): 15.6335 | constitutive luciferase activity (mouse BRS3 (mBRS3); CRE, replicate 2): 16.2401
B10: mBRS3-P158A (protein, UniProt O54798 1-399, looked up, variant P158A)
Bombesin receptor subtype-3: B2 Bombesin receptor subtype-3 with P158A, A337F
